Reference: patent US20040233833A1, “Methods for identifying compounds with thrapeutic potential for treatment of central Neurodegenerative diseases resulting from abnormal protein or peptide accumulation” (priority 2001, published 2004)
Values joined by “and” are separate entries in the source; they are usually repeats but may differ in a detail not shown here. Equal values may be shown once.

Legend:
proteasomes [1] = target: T1, proteasomes (Homo sapiens, UniProt P28072+P28074+Q99436); assay: Proteasomal degradation of the fluorescein-tagged C31 peptide of APP; format: biochemical; conditions: result in words
Method: A 31-residue C-terminal peptide (C31) of APP, the transmembrane protein that gives rise to amyloid plaque forming Aβ peptides characteristic of Alzheimer's disease, was synthesized using routine peptide synthesis. A fluorescein tag was added to the peptide. C31 peptide is cytotoxic. See Lu et al. (2000), a Second Cytotoxic Proteolytic Peptide Derived from Amyloid Beta-Protein Precursor, Nat. Med. 6:397-404.
The C31 was incubated with proteasomes alone, proteasomes+REGγ, proteasome+REGγ(K188E) or proteasomes+REGα/β, and degradation was assayed as described in Example 8.

[2] = Heptamer stability on rechromatography (Superdex 200 size exclusion column); format: physicochemical; conditions: for Percent heptamer: after second gel filtration; for Heptamers dissociated during the second gel filtration: Superdex 200
From the text: To examine the effect of Lys188 substitution on REGγ heptamer stability, the wildtype and Lys 188 variant heptamers were rechromatographed on the Superdex 200 (26/60) size exclusion column used for purification. […] Replacement of Lys 188 by Pro or Phe severely affected the stability of REGγ heptamer.

[3] = target: T2, Human red blood cell proteasomes (Homo sapiens, UniProt P28072+P28074+Q99436); assay: Activation of fluorogenic peptide hydrolysis by the proteasome in the presence of REG variants; format: biochemical; conditions: for Stimulation of cleavage (x-fold) LLE: substrate LLE-βNA (PGPH site); for Stimulation of cleavage (x-fold) LLVY: substrate LLVY-MCA (chymotrypsin-like site); for Stimulation of cleavage (x-fold) LRR: substrate LRR-MCA (trypsin-like site); for Activation properties compared with REGα: small fluorogenic peptides, result in words
T2 construct: Human red blood cell proteasomes; from tissue; host or cells: human red blood cells
Method: Human red blood cell proteasomes (170 ng) were mixed with increasing amounts of purified REG variants. The reactions were started by adding 50 μl of 200 μMscu-LLVY-MCA, Boc-LRR-MCA, or Boc-LLE-βNA in 10 mM Tris, pH 7.5. After a 10 min incubation, the reaction was quenched with 200μl of cold 100% ethanol, and the released MCA or βNA ws measured fluometrically. Each data point represents the mean of three measurements from a single experiment. […] REGα (▪), REGγ(□), REGγ(K188E) or REGγ(K188D) (●), REGγ(K188H) (∘), REGγ(K188Q) or REGγ(K188N) (Δ), REGγ(K188A) (♦). The data for REGγ(K188E) and REGγ(K188D) and for REGγ(K188Q) and REGγ(K188N) were combined since their activities were indistinguishable.
Because each positive variant identified in the previous example included a mutation at Lys188, site-directed mutagenesis was used to generate a series of amino acid substitutions at this residue. Twelve mutants were constructed in which Lys188 of REGγ was changed to Ala, Arg, Asn, Asp, Cys, Gln, Glu, His, Ile, Phe, Pro, or Ser. Wild-type REGγ and the Lys 188 variants were expressed in E. coli, purified, and the activation specificity of each protein was measured using the diagnostic peptides LLVY (SEQ ID NO:1)-MCA, LRR-MCA, and LLE-βNA. Except for the K188R variant, all Lys 188 mutants stimulated the hydrolysis of LRR-MCA by the proteasome to the same extent or slightly better than wild-type REGγ. Substitution of negatively-charged Glu or Asp for the positively-charged Lys188 produced mutants with activation properties almost identical to REGα.
To determine the degree to which the activation specificity of REGγ(K188E/D) variants matches that of REGα, proteasomal cleavage of a series of fluorogenic peptides was measured in the presence of each activator.

proteasome [4] = target: T3, proteasome (Homo sapiens, UniProt P28072+P28074+Q99436); assay: Proteasomal hydrolysis of natural peptides P21 and BBC1 (HPLC); format: biochemical; conditions: 21-residue peptide P21; result in words
Method: Proteasomal hydrolysis of a 21 -residue peptide (P21) and a 49-residue peptide (BBC1) were prepared as described by Zhang et al. (1998), Proteasome Activation by REG Molecules Lacking Homolog-specific Inserts, J. Biol. Chem. 273:9501-09. Digestion products were applied to a C18 HPLC column and separated with a gradient of 0-45% acetonitrile containing 0.1% trifluoroacetic acid. To identify the products derived from P21, fractions were collected manually, concentrated, and subjected to mass spectrometry.

[5] = target: T2, Human red blood cell proteasomes; assay: Activation of fluorogenic peptide hydrolysis by the proteasome in the presence of REG variants; format: biochemical; conditions: for Stimulation of cleavage (x-fold) AAF-MCA: substrate AAF-MCA; for Stimulation of cleavage (x-fold) DEVD-MCA: substrate DEVD(SEQ ID NO: 8)-MCA; for Stimulation of cleavage (x-fold) FSR-MCA: substrate FSR-MCA; for Stimulation of cleavage (x-fold) IEGR-MCA: substrate IEGR(SEQ ID NO: 5)-MCA; for Stimulation of cleavage (x-fold) IETD-MCA: substrate IETD(SEQ ID NO: 6)-MCA; for Stimulation of cleavage (x-fold) LGHD-MCA: substrate LGHD(SEQ ID NO: 7)-MCA; for Stimulation of cleavage (x-fold) LY-MCA: substrate LY-MCA; for Stimulation of cleavage (x-fold) VLK-MCA: substrate VLK-MCA; for Stimulation of cleavage (x-fold) YVAD-MCA: substrate YVAD(SEQ ID NO: 9)-MCA
proteasomes [6] = target: T1, proteasomes; assay: Proteasomal degradation of fluorescein-labeled polyQ peptides (molecular exclusion chromatography); format: biochemical; conditions: for % Degraded, substrate F1-EPQPQ / % Degraded, substrate F1-KSQPQ / % Degraded, substrate F1-QHQ / % Degraded, substrate F1-QPQ / % Degraded, substrate F1-QQQ: proteasome + activator, 5 hr incubation
Method: The following peptides were synthesized using routine peptide synthesis:
Each peptide was incubated for 5 hr with proteasomes alone, proteasomes+REGγ, proteasome+REGγ(K188E) or proteasomes+REGα/β. Degradation was assayed by molecular exclusion chromatography using fluorescein as a signal (see FIG. 2). The degradation products were identified by HPLC-MS (FIG. 3). […] By contrast, in the presence of REGγ(K188E) the various polyQ peptides were degraded 5 to 10-fold faster.

proteasome [7] = target: T3, proteasome; assay: REGα(N146Y)/REGβ(N135Y) competition assay for relative proteasome affinity; format: binding; conditions: in terms of REGα(N146Y)/REGβ(N135Y) competition; wild-type REGγ 100
From the text: As a measure of the relative affinities of REGγ and the REGγLys188 mutants for the proteasome, a competition assay was used. See Li et al. (2000), The Proteasome Activator 11S REG or PA28: Chimeras Implicate Carboxyl-Terminal Sequences in Oligomerization and Proteasome Binding But Not in the Activation of Specific Proteasome Catalytic Subunits. J. Mol. Biol. 299:641-54. All REGγLys188 mutants were relatively resistant to REGα(N146Y)/REGβ(N135Y) competition with apparent proteasome affinities varying from 40% to 90% that of wild-type REGγ.

[8] = target: proteasome β subunits (T, CT/PGPH) (Homo sapiens, UniProt P28072+P28074+Q99436); assay: Affinity labeling of proteasome β subunits with 125I-YL3-VS in the presence of REGs; format: biochemical; conditions: mean±S.D.
From the text: To obtain estimates of substrate access to the proteasome's central chamber in the presence of REGγ and REGγ(K188E), the active site-directed probe, ^125I-YL3-VS, which covalently modifies all three active β-subunits in an activity dependent manner, was used. […] The phosphoimages show increased labeling of CT/PGPH and T subunits in the presence of REGγ and REGγ(K188E). The data further reveal that REGγ increased the rate of T-subunit labeling 4.7±2.6 (mean±S.D.) fold and the rate of CT/PGPH labeling 4.4±1.7 (mean±S.D.) fold over that seen with proteasome alone. Stimulation by the mutant REGγ(K188E) was greater, being 10.8±4.9 (mean±S.D.) fold for the T-subunit and 11.9±4.8 (mean±S.D.) fold for the CT/PGPH subunit. […] The finding that REGγ increased labeling of the CT and PGPH subunits was unexpected as the wild type activator suppresses hydrolysis of the CT substrate sLLVY (SEQ ID NO:1)-MCA.

Substance	Degradation of C31 peptide by proteasomes (proteasomes [1])	Percent heptamer [2]	Stimulation of cleavage (x-fold) LLE [3]	Stimulation of cleavage (x-fold) LLVY [3]	Stimulation of cleavage (x-fold) LRR [3]	Hydrolysis of P21 by the proteasome (proteasome [4])	Stimulation of cleavage (x-fold) AAF-MCA [5]	Stimulation of cleavage (x-fold) DEVD-MCA [5]	Stimulation of cleavage (x-fold) FSR-MCA [5]	Stimulation of cleavage (x-fold) IEGR-MCA [5]	Stimulation of cleavage (x-fold) IETD-MCA [5]	Stimulation of cleavage (x-fold) LGHD-MCA [5]	Stimulation of cleavage (x-fold) LY-MCA [5]	Stimulation of cleavage (x-fold) VLK-MCA [5]	Stimulation of cleavage (x-fold) YVAD-MCA [5]	% Degraded, substrate F1-EPQPQ (proteasomes [6])	% Degraded, substrate F1-KSQPQ (proteasomes [6])	% Degraded, substrate F1-QHQ (proteasomes [6])	% Degraded, substrate F1-QPQ (proteasomes [6])	Relative affinity for proteasome (proteasome [7])	other results
REGγ: wild-type 11S REG proteasome activator subunit, a homo-heptamer found principally in the nucleus	Only trace amounts	>95%	0.6 x-fold	0.4 x-fold	12 x-fold and 11 x-fold	decreased	1 x-fold	2 x-fold	7 x-fold	1 x-fold	1 x-fold	1 x-fold	2 x-fold	5 x-fold	0.9 x-fold	5%	15%	5%	5%	100	Percentage that remained heptamers on rechromatography ([2]; Superdex 200 second gel filtration): remained fully heptameric; Stimulation of cleavage of the LRR-MCA substrate ([5]; compared to the basal rate in the absence of REGγ (Example 10)): 10-20 fold; Proteasomal cleavage of sucLLVY-MCA ([5]; result in words): does not promote; % Degraded, substrate F1-QQQ (proteasomes [6]): 15%; Degradation of polyQ peptides (proteasomes [6]; result in words): resistant to degradation; Increase in rate of CT/PGPH labeling over proteasome alone [8]: 4.4±1.7 fold; Increase in rate of T-subunit labeling over proteasome alone [8]: 4.7±2.6 fold
γK188D: mutant REGγ in which Lys188 was changed to Asp	–	50%	9 x-fold	14 x-fold	15 x-fold	markedly increased	4 x-fold	9 x-fold	7 x-fold	2 x-fold	26 x-fold	11 x-fold	3 x-fold	6 x-fold	8 x-fold	–	–	–	–	90	Heptamers dissociated during the second gel filtration [2]: More than half; Activation properties compared with REGα [3]: virtually identical to REGα
γK188E: mutant REGγ in which Lys188 was changed to Glu	extensively degraded	50%	9 x-fold	14 x-fold	15 x-fold	markedly increased	4 x-fold	8 x-fold	7 x-fold	2 x-fold	21 x-fold	10 x-fold	3 x-fold	6 x-fold	7 x-fold	80%	80%	50%	50%	90	Heptamers dissociated during the second gel filtration [2]: More than half; Activation properties compared with REGα [3]: virtually identical to REGα; Cleavage of peptides diagnostic for the CT-like or PGPH active sites ([5]; result in words): substantially more than REGγ; % Degraded, substrate F1-QQQ (proteasomes [6]): >95%; Increase in rate of CT/PGPH labeling over proteasome alone [8]: 11.9±4.8 fold; Increase in rate of T-subunit labeling over proteasome alone [8]: 10.8±4.9 fold
